In article PMC8305194, “Structural, Mechanistic, and Functional Insights into an Arthrobacter nicotinovorans Molybdenum Hydroxylase Involved in Nicotine Degradation” (Molecules, 2021):

B1: Kdh holoenzyme (KdhL, KdhM, KdhS); 6-hydroxypseudooxynicotine 2-oxidoreductase; ketone dehydrogenase (Paenarthrobacter nicotinovorans) (protein)
chain: MMAKAKALIPDNGRAGADEGNRQAWIGQEVLRREDRRLLTGTATFAGDLGVPGQLHMRIVRSTQAHARIVSIDATEAEKTPGVRMVITSEHTRHLGSVLLEELGYHEIYENIEDFSHPVLAVDKVLYVGQPVVAVLAVDPYLAEDAAELVSIEYEPLPVLLDPEEALTGKVELFPGRGNEGARIKKAYGDIDRAFAEAEHVIRHKYVTNRHSGVPMEPRAVVVQPDPARDTLFIWGTVHVHDNRRIIAKMLNLPEVNVRMKHVEIGGSFGVKGGVFPENVVAAWAARTLGVPIKWTEDRVEHMTSTSHAREMVHKLELALDAEGRILGMKDEIFHNHGAYFRQAEPLVSDITAGIVFGPYRVPAYDATLHAVFTNKTPVGAYRAPGRYESTFARERIFDLACAEIGLSKTEFRRRNLLTAEDLPWTPGLDIVHEPYHFDSGDVVKHFNEALEAANFSEWLEESKRLRADGRKVGVGLGVLMDKAGLGLFETGGVEVSRAGRVTVKTGGSSVGQGIETVLAQIVAEELQIAPENIDIVHSDTELIPDGVGSWSSRSTVLAGGAARKAALAVVEKARRLASEMLEADPDDLELTAGSFKVKGTDQQISLYEIAAARDPFTARADNDEPGLAADAVYMNNAMNYPYGVTLVQIELDPDTGGHRILRFSTSTEAGRVINPLTTRGQIIGAAVQGIGGALYEEFLYEEDGQPITTSFMDYLLPSAQEMPNVDCFVTEDAKSPDNPFGAKGLGEIGIIAAGAAIASAIDDAIADGVHTDRLPVTPEQIFSRCQGLNKAER
notes: kdhLMS co-expressed from pART2-kdhLMS in A. nicotinovorans pAO1; Ni-NTA (tag not described) and Superdex 200; KdhL 87 kDa, KdhM 287 residues, KdhS 160 residues; heterotrimer, dimer of heterotrimers in crystal; with 6-hydroxypseudooxynicotine dehydrogenase complex subunit alpha; 6-hydroxypseudooxynicotine dehydrogenase complex subunit beta
B2: Kdh holoenzyme (KdhL, KdhM, KdhS); 6-hydroxypseudooxynicotine 2-oxidoreductase; ketone dehydrogenase (Paenarthrobacter nicotinovorans; F269A) (protein)
chain: MMAKAKALIPDNGRAGADEGNRQAWIGQEVLRREDRRLLTGTATFAGDLGVPGQLHMRIVRSTQAHARIVSIDATEAEKTPGVRMVITSEHTRHLGSVLLEELGYHEIYENIEDFSHPVLAVDKVLYVGQPVVAVLAVDPYLAEDAAELVSIEYEPLPVLLDPEEALTGKVELFPGRGNEGARIKKAYGDIDRAFAEAEHVIRHKYVTNRHSGVPMEPRAVVVQPDPARDTLFIWGTVHVHDNRRIIAKMLNLPEVNVRMKHVEIGGSAGVKGGVFPENVVAAWAARTLGVPIKWTEDRVEHMTSTSHAREMVHKLELALDAEGRILGMKDEIFHNHGAYFRQAEPLVSDITAGIVFGPYRVPAYDATLHAVFTNKTPVGAYRAPGRYESTFARERIFDLACAEIGLSKTEFRRRNLLTAEDLPWTPGLDIVHEPYHFDSGDVVKHFNEALEAANFSEWLEESKRLRADGRKVGVGLGVLMDKAGLGLFETGGVEVSRAGRVTVKTGGSSVGQGIETVLAQIVAEELQIAPENIDIVHSDTELIPDGVGSWSSRSTVLAGGAARKAALAVVEKARRLASEMLEADPDDLELTAGSFKVKGTDQQISLYEIAAARDPFTARADNDEPGLAADAVYMNNAMNYPYGVTLVQIELDPDTGGHRILRFSTSTEAGRVINPLTTRGQIIGAAVQGIGGALYEEFLYEEDGQPITTSFMDYLLPSAQEMPNVDCFVTEDAKSPDNPFGAKGLGEIGIIAAGAAIASAIDDAIADGVHTDRLPVTPEQIFSRCQGLNKAER
notes: as for B1
B3: Kdh holoenzyme (KdhL, KdhM, KdhS); 6-hydroxypseudooxynicotine 2-oxidoreductase; ketone dehydrogenase (Paenarthrobacter nicotinovorans; R383A) (protein)
chain: MMAKAKALIPDNGRAGADEGNRQAWIGQEVLRREDRRLLTGTATFAGDLGVPGQLHMRIVRSTQAHARIVSIDATEAEKTPGVRMVITSEHTRHLGSVLLEELGYHEIYENIEDFSHPVLAVDKVLYVGQPVVAVLAVDPYLAEDAAELVSIEYEPLPVLLDPEEALTGKVELFPGRGNEGARIKKAYGDIDRAFAEAEHVIRHKYVTNRHSGVPMEPRAVVVQPDPARDTLFIWGTVHVHDNRRIIAKMLNLPEVNVRMKHVEIGGSFGVKGGVFPENVVAAWAARTLGVPIKWTEDRVEHMTSTSHAREMVHKLELALDAEGRILGMKDEIFHNHGAYFRQAEPLVSDITAGIVFGPYRVPAYDATLHAVFTNKTPVGAYAAPGRYESTFARERIFDLACAEIGLSKTEFRRRNLLTAEDLPWTPGLDIVHEPYHFDSGDVVKHFNEALEAANFSEWLEESKRLRADGRKVGVGLGVLMDKAGLGLFETGGVEVSRAGRVTVKTGGSSVGQGIETVLAQIVAEELQIAPENIDIVHSDTELIPDGVGSWSSRSTVLAGGAARKAALAVVEKARRLASEMLEADPDDLELTAGSFKVKGTDQQISLYEIAAARDPFTARADNDEPGLAADAVYMNNAMNYPYGVTLVQIELDPDTGGHRILRFSTSTEAGRVINPLTTRGQIIGAAVQGIGGALYEEFLYEEDGQPITTSFMDYLLPSAQEMPNVDCFVTEDAKSPDNPFGAKGLGEIGIIAAGAAIASAIDDAIADGVHTDRLPVTPEQIFSRCQGLNKAER
notes: as for B1

Substrate: CNCCCC(=O)c1ccc(O)nc1
Assay: purified protein
Assay type: biochemical, Paenarthrobacter nicotinovorans
Details: 500 μM PMS, 50 μM DCIP, aerobic, 30 °C
[1] = pH 8.0, Tris-HCl per Table 2 (Table 3 lists the same value under PBS pH 8.0)

Protein | Km [1] [µM] | kcat [1] [s⁻¹] | kcat/Km [1] [M⁻¹ s⁻¹] | Km (Tris-HCl pH 8.0) [µM] | kcat (Tris-HCl pH 8.0) [s⁻¹] | kcat/Km (Tris-HCl pH 8.0) [M⁻¹ s⁻¹]
B1 | 12.5 ± 0.9 | 9.03 ± 0.12 | 720000 ± 130000 |  |  | 
B2 |  |  |  | 25.98 ± 2.73 | 2.3 ± 0.07 | 90000 ± 30000
B3 |  |  |  | 21.4 ± 2.3 | 6.32 ± 0.16 | 300000 ± 70000
